The assay addresses T1, human complement factor H (human, UniProt P08603 19-1231).
T1 construct: complement factor H, human; used at 500 nM in the ELISA; also called FH; human FH
In words: ELISA; 1 µg histidine-tagged CspZ coated on wells, blocked with 5% BSA in PBS; PBS (control), irrelevant human IgG, #1139c or #1193c (0.4-50 nM) added, then 500 nM human FH; bound FH detected with sheep anti-human FH and donkey anti-sheep HRP. The settings on record: both partners purified. A general note: An ELISA detects its analyte on a solid surface through an enzyme-linked reagent.

T1 sequence (P08603 19-1231): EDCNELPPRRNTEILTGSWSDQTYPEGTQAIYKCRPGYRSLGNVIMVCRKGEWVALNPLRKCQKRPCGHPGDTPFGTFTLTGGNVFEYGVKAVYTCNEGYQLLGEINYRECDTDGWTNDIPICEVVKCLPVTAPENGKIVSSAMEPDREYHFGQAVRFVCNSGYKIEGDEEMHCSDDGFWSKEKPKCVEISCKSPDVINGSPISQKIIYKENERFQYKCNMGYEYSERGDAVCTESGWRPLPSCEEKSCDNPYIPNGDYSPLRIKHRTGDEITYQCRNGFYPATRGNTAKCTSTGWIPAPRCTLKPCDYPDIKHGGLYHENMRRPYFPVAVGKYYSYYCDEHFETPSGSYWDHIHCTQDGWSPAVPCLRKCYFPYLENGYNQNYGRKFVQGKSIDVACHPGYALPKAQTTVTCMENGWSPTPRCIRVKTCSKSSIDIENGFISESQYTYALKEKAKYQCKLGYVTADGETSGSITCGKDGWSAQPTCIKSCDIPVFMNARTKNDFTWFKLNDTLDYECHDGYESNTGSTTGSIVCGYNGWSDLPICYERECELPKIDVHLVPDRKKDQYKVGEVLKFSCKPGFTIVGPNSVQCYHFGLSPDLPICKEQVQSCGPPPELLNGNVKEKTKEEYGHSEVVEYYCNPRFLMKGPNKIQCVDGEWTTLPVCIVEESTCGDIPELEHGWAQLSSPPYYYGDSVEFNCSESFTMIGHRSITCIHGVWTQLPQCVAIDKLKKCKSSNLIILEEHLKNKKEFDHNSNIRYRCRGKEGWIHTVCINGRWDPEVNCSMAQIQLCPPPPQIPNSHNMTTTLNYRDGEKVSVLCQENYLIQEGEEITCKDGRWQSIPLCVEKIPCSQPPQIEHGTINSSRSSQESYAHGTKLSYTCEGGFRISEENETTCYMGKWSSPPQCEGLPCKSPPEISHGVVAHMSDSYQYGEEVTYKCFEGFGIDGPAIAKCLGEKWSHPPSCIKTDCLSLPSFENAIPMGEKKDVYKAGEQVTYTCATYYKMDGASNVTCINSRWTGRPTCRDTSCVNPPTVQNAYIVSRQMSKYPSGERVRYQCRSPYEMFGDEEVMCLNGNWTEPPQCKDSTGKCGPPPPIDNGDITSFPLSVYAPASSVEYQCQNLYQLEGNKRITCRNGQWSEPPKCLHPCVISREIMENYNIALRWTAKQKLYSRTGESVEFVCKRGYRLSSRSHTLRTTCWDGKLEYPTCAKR

B1: histidine-tagged CspZ (B. burgdorferi B31 CspZ) (natural protein)
chain: RLNQRNINELKIFVEKAKYYSIKLDAIYNECTGAYNDIMTYSEGTFSDQSKVNQAISIFKKDNKIVNKFKELEKIIEEYKPMFLSKLIDDFAIELDQAVDNDVSNARHVADSYKKLRKSVVLAYIESFDVISSKFVDSKFVEASKKFVNKAKEFVEENDLIALECIVKTIGDMVNDREINSRSRYNNFYKKEADFLGAAVELEGAYKAIKQTLL
notes: CspZ (BbCRASP-2), outer surface protein of Borrelia burgdorferi strain B31; codon-optimised synthetic DNA in pET28a (BamHI/SalI); this is a surmise; also called BbCRASP-2
Take B1: the binding result was “binds”.
